Patent US20220153874A1 (NEURIMMUNE, published 2022)
Residue numbers refer to the chain shown, from its start. Names and notes keep the numbering of the source. Ends that are not written are not given here.

Legend:
(GA)8 repeats = target: T1, (GA)8 repeats; assay: SPR, inset: Fab bound (RU) plotted against [Fab] from 0 to 20000 nM with a fitted saturation curve
T1 construct: also called poly-(GA)8; GA (e.g., poly(GA))
T1 peptide: GAGAGAGAGAGAGAGA

[1] = target: T2, BSA-coupled (GA)15 dipeptide repeat protein peptide (H-CHHHHHH(GA)15-OH conjugated via SMCC to bovine serum … (bovine, UniProt P02769 25-607, conjugated via a bifunctional linker (SMCC) to bovine serum albumin (BSA))); assay: indirect ELISA, coated BSA-coupled peptide
T2 construct: also called BSA-coupled peptide; BSA-conjugated poly-GA
Method: (§1) In brief, poly-GA dipeptide repeat proteins were synthesized and purified by Schafer-N(Copenhagen, Denmark): (GA)₁₅: H-CHHHHHH(GA)₁₅-OH (SEQ ID NO: 61). Poly-GA DPR protein peptides were then conjugated via a bifunctional linker (SMCC) to bovine serum albumin (BSA). 96-well microplates (Corning Incorporated, Corning, USA) were coated with poly-GA BSA-coupled or uncoupled dipeptide repeat protein peptides at a concentration of 5 μg/ml in coating buffer (15 mM Na₂CO₃, 35 mM NaHCO₃, pH 9.42). Non-specific binding sites were blocked for 1 h at RT with PBS/0.1% Tween®-20 containing 2% BSA (Sigma-Aldrich, Buchs, Switzerland). […] Binding was determined by measurement of HRP activity in a standard colorimetric assay.
(§2) EC₅₀ values were estimated by non-linear regression using GraphPad Prism software (San Diego, USA).

[2] = target: T3, synthesized dipeptide repeat protein (GA)15: H-CHHHHHH(GA)15-OH; assay: indirect ELISA, coated uncoupled peptide
T3 construct: also called poly-GA DPR peptide; uncoupled (GA)15 peptide
T3 peptide: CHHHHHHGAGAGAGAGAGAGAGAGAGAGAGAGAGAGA
Method: as §1, §2

[3] = target: T3, synthesized dipeptide repeat protein …; assay: indirect ELISA, coated peptide
Method: In brief, dipeptide repeat proteins were synthesized and purified by Schafer-N(Copenhagen, Denmark): (GA)₁₅: H-CHHHHHH(GA)₁₅-OH (SEQ ID NO: 61); (GP)₁₅: H-C(GP)₁₅-OH (SEQ ID NO: 62); (GR)₁₅: H-C(GR)₁₅-OH (SEQ ID NO: 63); (PA)₁₅: H-C(PA)₁₅-OH (SEQ ID NO: 64); (PR)₁₅: H—C(PR)₁₅-OH (SEQ ID NO: 65). 96-well microplates (Corning Incorporated, Corning, USA) were coated with dipeptide repeat protein peptides at a concentration of either 5 μg/ml or 20 μg/ml in coating buffer (15 mM Na₂CO₃, 35 mM NaHCO₃, pH 9.42). Non-specific binding sites were blocked for 1 h at RT with PBS/0.1% Tween®-20 containing 2% BSA (Sigma-Aldrich, Buchs, Switzerland). […] Binding was determined by measurement of HRP activity in a standard colorimetric assay.
as §2

[4] = target: T3, synthesized dipeptide repeat protein …; assay: BLI (Octet RED96), peptide immobilised on AR2G sensor, IgG as analyte, 1:1 model
Method: Poly-GA dipeptide repeat protein peptides were synthesized and purified by Schafer-N (Copenhagen, Denmark): (GA)₁₅: H-CHHHHHH(GA)₁₅-OH (SEQ ID NO: 61). Pure, lyophilized (GA)₁₅ (SEQ ID NO: 66) was dissolved in DMSO (Sigma-Aldrich, Buchs, Switzerland) at a concentration of 10 mg/ml and stored at −20° C. In brief, bio-layer interferometry experiments were performed on Octet RED96 instrument (Pall ForteBio LLC, Fremont, USA). Octet amine-reactive (AR2G) biosensors were used for covalent immobilization of (GA)₁₅ (SEQ ID NO: 66) dipeptide repeat protein peptides. AR2G biosensors were activated with EDC (1-Ethyl-3-[3-dimethylaminopropyl] carbodiimide hydrochloride; 20 mM in water; Pall ForteBio LLC, Fremont, USA) and s-NHS (N-hydroxysulfosuccinimide; 10 mM in water; Pall ForteBio LLC, Fremont, USA) for 300 s, followed by loading of the biosensor surface with 5 μg/ml of (GA)₁₅ (SEQ ID NO: 66) peptides in 10 mM acetate buffer pH 6 (Pall ForteBio LLC, Fremont, USA) for 600 s. […] Antibody dissociation was evaluated in kinetics buffer for 800 s. All binding data were referenced by collecting data with a PBS only reference. Data analysis was performed by using the Octet system software (Pall ForteBio LLC, Fremont, USA) with simultaneous Kₐ/Kd global fitting with 1:1 interaction model. BLI sensorgrams were drawn with the Prism software from GraphPad (San Diego, USA) upon fitting.

[5] = target: T4, synthesized dipeptide repeat protein (GA)6: H-(GA)6HHHHHH-NH2; assay: indirect ELISA, peptide coated at 50 µg/ml
T4 peptide: H-GAGAGAGAGAGAHHHHHH-NH2
Text: (§3) In brief, Dipeptide repeat protein peptides were synthesized and purified by Schafer-N(Copenhagen, Denmark): GA₂₀: H-(GA)₂₀HHHHHH-NH₂ (SEQ ID NO: 71); GA₁₀: H-(GA)₁₀HHHHHH-NH₂ (SEQ ID NO: 72); GA₆: H-(GA)₆HHHHHH-NH₂ (SEQ ID NO: 73); GA₅: H-(GA)₅HHHHHH-NH₂ (SEQ ID NO: 74); GA₄: H-(GA)₄HHHHHH-NH₂ (SEQ ID NO: 75); GA₃: H-(GA)₃HHHHHH-NH₂ (SEQ ID NO: 76); GA₂: H-(GA)₂HHHHHH-NH₂ (SEQ ID NO: 77). 96-well microplates (Corning Incorporated, Corning, USA) were coated with dipeptide repeat protein peptides at a concentration of 50 μg/ml in coating buffer (15 mM Na₂CO₃, 35 mM NaHCO₃, pH 9.42). Non-specific binding sites were blocked for 1 h at RT with PBS/0.1% Tween®-20 containing 2% BSA (Sigma-Aldrich, Buchs, Switzerland). […] Binding was determined by measurement of HRP activity in a standard colorimetric assay. EC₅₀ values were estimated by non-linear regression using GraphPad Prism software (San Diego, USA).
(§4) High affinity binding was detected for poly-GA DPRs harboring 10 (SEQ ID NO: 79) or 20 (GA)-repeats (SEQ ID NO: 82), reflected in an EC₅₀ in the subnanomolar range (Table 5, FIG. 6).

[6] = target: T5, synthesized dipeptide repeat protein (GA)20: H-(GA)20HHHHHH-NH2 (C-terminal amide (-NH2)); assay: indirect ELISA, peptide coated at 50 µg/ml
T5 peptide: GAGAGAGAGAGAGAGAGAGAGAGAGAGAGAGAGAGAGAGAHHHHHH
Text: as §3, §4

[7] = target: T6, synthesized dipeptide repeat protein (GA)10: H-(GA)10HHHHHH-NH2 (C-terminal amide (-NH2)); assay: indirect ELISA, peptide coated at 50 µg/ml
T6 peptide: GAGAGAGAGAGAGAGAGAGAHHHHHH
Text: as §3, §4

synthetic biotin-8xGA = target: T7, synthetic biotin-8xGA (also: biotin, position not given here); assay: SPR (Biacore T200), biotin-8xGA captured on Biotin CAPture chip, Fab as analyte, 1:1 model
T7 construct: also called synthetic 8×GA; poly-(GA)8 peptide
T7 peptide: GAGAGAGAGAGAGAGA
Method: Variant Fabs were assessed for binding to synthetic poly-GA by SPR, using a Biacore T200 instrument (GE Healthcare). Synthetic biotin-8xGA was captured on a Biotin CAPture chip (GE Healthcare) at […] from solutions at 5 ng/mL in SPR buffer (10 mM HEPES, pH 7.2, 150 mM NaCl, 3.4 mM EDTA, 0.05% BSA, 0.005% surfactant P20) using reagents and protocols provided by the manufacturer. A series of solutions of variant antibody Fab fragments at increasing concentrations of 1.23, 3.7, 11, 33, and 100 nM in SPR buffer were injected over the biotin-8xGA coated sensor chip for 4 min each at 30 μL/min followed by buffer wash, and the binding response relative to a reference sensor with no biotin-8xGA was recorded during injections and for 15 min after the final injection. Data were analyzed with Biacore T200 Evaluation Software v3.0 using a 1:1 binding model.

T2 sequence (P02769 25-607 limits assumed): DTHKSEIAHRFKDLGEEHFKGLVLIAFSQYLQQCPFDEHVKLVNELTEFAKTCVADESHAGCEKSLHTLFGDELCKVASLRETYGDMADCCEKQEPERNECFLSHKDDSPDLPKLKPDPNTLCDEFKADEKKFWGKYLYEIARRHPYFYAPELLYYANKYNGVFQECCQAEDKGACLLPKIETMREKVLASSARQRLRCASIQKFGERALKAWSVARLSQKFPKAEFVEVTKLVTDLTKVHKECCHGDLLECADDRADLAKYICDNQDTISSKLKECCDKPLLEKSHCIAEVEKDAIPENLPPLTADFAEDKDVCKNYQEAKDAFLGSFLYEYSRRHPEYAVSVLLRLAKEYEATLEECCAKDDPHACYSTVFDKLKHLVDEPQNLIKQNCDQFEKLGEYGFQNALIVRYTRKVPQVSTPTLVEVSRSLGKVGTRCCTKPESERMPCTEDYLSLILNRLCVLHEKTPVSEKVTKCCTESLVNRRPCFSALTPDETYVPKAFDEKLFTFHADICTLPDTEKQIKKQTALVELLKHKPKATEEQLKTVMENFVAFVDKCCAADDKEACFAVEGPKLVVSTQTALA

B1: Fab fragment of DPR Ab-1 (Fab, V domains shown)
VH: QVQLVESGGGVVQPGRSLRLSCAASGFTFSNHAMHWVRQAPGKGLEWVAVISYDGENTYYADSIEGRFTISRDNFKNTLFLQMYSLTADDTAMYFCARGGRRGHFTSYYLDYWGQGTLVTVSS
VL: DIQMTQSPSSLSASVGDRVTITCRASQNIDKYLNWYQQIPGKAPKLLIYAASSLHSGVPSRFSGSGSGTDFSLTISSLQPEDFAIYYCQQSYSSFRTFGQGTKLEIK
notes: also called DPR Ab-1 Fab
Kd ((GA)8 repeats): 4600 nM

B2: NI-308.5J10 recombinant human-derived monoclonal antibody (human IgG1, kappa) (antibody, V domains shown)
VH: SETLSLTYTVLGGSVSDYYWSCIRQPAGKGLEWIGRTYTNGKTTYTYNPSLESRLSLSIDTSMNQFSLKLTSVTAADTAVYYCARWGAVTGDYYYGMDVWGPGTLVTVSS
VL: EIVLTQSPLSLSVTPGEPASISCRSPRSLLHTNGYTYLDWYLQRPGQSPQLLIFLASNRASGVPDRFSGSGSGTNFTLRISGVEADDVGVYYCMQGLQPSWTFGQGTKVEIKR
notes: Full hIgG1 heavy chain (plasmid SDD151) and kappa light chain (plasmid SDD152); also called 5J10 hIgG1
EC50 [1]: 0.16 nM | EC50 [2]: 0.23 nM | EC50 [3]: 0.26 nM | Kd [4]: 0.15 nM | koff [4]: 2.4e-05 s⁻¹ | kon [4]: 163000 M⁻¹ s⁻¹ | EC50 [5]: 13.8 nM | EC50 [6]: 0.29 nM | EC50 [7]: 0.3 nM

B3: NI-308.5J10 variant WT-Fab-6His / N75D light chain (Fab, V domains shown)
VH: B2 VH
VL: B2 VL with N75D
notes: Plasmids SDD178 and SDD177; also called LC N75D Fab; 5J10-LC N75D Fab
Kd (synthetic biotin-8xGA): 26 nM | koff (synthetic biotin-8xGA): 0.0059 s⁻¹ | kon (synthetic biotin-8xGA): 230000 M⁻¹ s⁻¹

B4: NI-308.5J10 variant N54T-Fab-6His / N75D light chain (Fab, V domains shown)
VH: B2 VH with N40T
VL: B2 VL with N75D
notes: Plasmids SDD180 and SDD177; also called HC N54T/LC N75D Fab; 5J10-LC N75D, HC N54T Fab
Kd (synthetic biotin-8xGA): 30 nM | koff (synthetic biotin-8xGA): 0.0076 s⁻¹ | kon (synthetic biotin-8xGA): 260000 M⁻¹ s⁻¹

B5: NI-308.5J10 variant G55T-Fab-6His / N75D light chain (Fab, V domains shown)
VH: B2 VH with G41T
VL: B2 VL with N75D
notes: Plasmids SDD182 and SDD177; also called HC G55T/LC N75D Fab; 5J10-LC N75D, HC G55T Fab
Kd (synthetic biotin-8xGA): 22 nM | koff (synthetic biotin-8xGA): 0.0044 s⁻¹ | kon (synthetic biotin-8xGA): 200000 M⁻¹ s⁻¹

B6: NI-308.5J10 variant N54S-Fab-6His / N75D light chain (Fab, V domains shown)
VH: B2 VH with N40S
VL: B2 VL with N75D
notes: Plasmids SDD179 and SDD177; also called HC N54S/LC N75D Fab; 5J10-LC N75D, HC N54S Fab
Kd (synthetic biotin-8xGA): 21 nM | koff (synthetic biotin-8xGA): 0.006 s⁻¹ | kon (synthetic biotin-8xGA): 290000 M⁻¹ s⁻¹

B7: NI-308.5J10 variant G55S-Fab-6His / N75D light chain (Fab, V domains shown)
VH: B2 VH with G41S
VL: B2 VL with N75D
notes: Plasmids SDD181 and SDD177; also called HC G55S/LC N75D Fab; 5J10-LC N75D, HC G55S Fab
Kd (synthetic biotin-8xGA): 24 nM | koff (synthetic biotin-8xGA): 0.0044 s⁻¹ | kon (synthetic biotin-8xGA): 180000 M⁻¹ s⁻¹

B8: NI-308.5J10 WT Fab-6His (WT-Fab-6His / WT light chain) (Fab, V domains shown)
VH: B2 VH
VL: B2 VL
notes: The heavy chain is VH-CH1 with a C-terminal hexahistidine tag; also called 5J10 Fab
Kd (synthetic biotin-8xGA): 28 nM | koff (synthetic biotin-8xGA): 0.0078 s⁻¹ | kon (synthetic biotin-8xGA): 270000 M⁻¹ s⁻¹
